The subject of assay [1] is cartilage of normal rat (articular, ear, tracheal, intervertebral disc). Nature of the assay: rhMK effect on cartilage thickness of normal rats (subcutaneous injection, histology). Format: in vivo. The note with it: rhMK 175 μg/kg s.c. daily for a week. Here is the method: Method. 8-weeks-old male C57BL/6J mice were injected subcutaneously with recombinant human MK (rhMK) or control saline. The injection volume was 0.5 ml, given daily for a week. The mice were grouped (3 animals per group): Saline (NS) group, rhMK groups injected with various dosages at 10, 33, 100, 300, 900 μg/kg. Rats were injected with saline or rhMK (175 μg/kg) daily for a week. Rabbits were injected with saline or rhMK (92.5 μg/kg) daily for two week. Histological observation and evaluation. The knee joint tissues of all mice and rats were fixed in 10% (v/v) formalin for 1 day, the tissues of rabbits were fixed for 2 days. The fixed tissues were subjected to demineralization in liquid (7% AlCl3.6H2O, 5% methanoic acid, 8.5% HCl) 4 days for mouse and rats issues, and 10 days for rabbit tissues. The demineralized tissues were subjected to dehydration by gradient ethanol, and treated for transparency by xylene, and embedded in wax. Tissue sections were prepared by the paraffin slicing machine (Laica), and stained with hemotoxylin/eosin or Safranine O/fast green staining. Slides were observed under microscope and analyzed. The thickness of cartilage tissues were measured by the vernier caliper on microscope. Three tissue sections from each sample were measured and analyzed statisticaly. The distance between surface of cartilage to subchondral tide line was measured at ½ position of femoral condyle to denote the thickness of knee-joint cartilage. The thickness of cartilage at central part of ears was measured to denote the thickness of ear elastic cartilage. The distance between out surface of annulus to nucleus of the intervertebral disc was measured to denote the thickness of thoracic intervertebral disc (T2-3). To verify the results of rhMk in mice, we performed the same experiments in vivo using commonly used laboratory animals, rat and rabbit. Rats were injected subcutaneously with rhMK at 175 μg/kg/day for one week, and rabbits was injected subcutaneously 92.5 ug/kg/day for two weeks. […] The injection dose of rhMK: mice was injected subcutaneously 300 μg/kg daily for a week; rats were injected 175 μg/kg daily for a week; and New Zealand rabbits was injected 92.5 μg/kg daily for two weeks. Three animals per group were analyzed.

For assay [2], the system named is rat auricular chondrocytes. As to the kind of experiment: Phenotype of chondrocytes in monolayer culture (semi-quantitative PCR of Col2a1, collagen II immunohistochemical staining). Format: cell-based. Here is the method:
3. Culture of primary chondrocytes in monolayer. Three types of primary chondrocytes were suspended in DMEM medium containing 10% FBS, adjusted to 5×10^4 cells/ml, added to 6-well plate with 2 ml medium/well, and incubated in 37° C. at 5% CO2. Experiment was divided into two groups: control group and experimental group (with 3 μg/ml rhMK). Cell medium was changed every two days. When the cells grew to the confluence of 85% to 90%, the cells were collected by trypsin digestion, washed in PBS by centrifugation. The cells were resuspended in DMEM containing 10% FBS. Cell survival was monitored by trypan blue staining. Part of the cells were used for cell passage; some were for RNA extraction; some were cytospined onto a glass slide for later immunohistochemical staining and the slides were stored at −80° C. Primary cells or passage 0 (P0) were cultured for 7 days. The newly passaged cells were further cultured in a 6-well plate for 3 days which was then collected by trypsin-digestion and marked as passage P1. The cell amplification at each passage=total number of cells at output/total number of cells at initial input. 6. Immunohistochemical staining. […] RNA extraction and semi-quantitative PCR. […] PCR products were separated on 1.5% (w/v) agarose gels and quantified after staining with ethidium bromide in comparison with internal control gene expression of β-actin.

Assay [3] concerns ACLT-induced rat knee cartilage damage. As to the kind of experiment: Osteoarthritis induced by anterior cruciate ligament transection (ACLT) of rat knee, intra-articular rhMK. The assay is classed as in vivo, SD rats. On the procedure: Method. 7-week-old male SD rats (250-330 g weight) were anesthetized with 3% pentobarbital sodium (30 mg/kg) by intraperitoneal injection. After anesthesia, the skin was prepared on both sides of the knees. With conventional surgical sterilization and under sterile conditions, the skin and subcutaneous tissue of the knees was cut open from the middle of front knee. The joint capsule was cut along the inner side of the white patellar tendon resulting in patellar dislocation. The anterior cruciate ligament was identified and cut with ophthalmic scissors. The knee was straightened, the patella was relocated, and the wound was sutured layer by layer. Amikacin (100,000 U/ml, injection concentration of 10 mg/kg, a dose of 1 μl/10 g body weight) was injected every day for 4 days to prevent the wound site infection. 14 weeks after the surgery, saline or rhMK was injected into the knee-articular cavity. The rats in sham group without ACLT surgery were not treated; The rats in the ACLT/saline group were injected with 100 μl saline; The rats in ACLT/rhMK-L group were injected with 100 μl rhMK (58.3 μg/kg); In ACLT/rhMK-H group, 100 μl rhMK (525 μg/kg) was given. The injections were given three times one week and continued for two weeks. The rats were maintained in cages with free movement. The rats were sacrificed 2 or 6 weeks after the initiation of the treatments. […]

B1: rhMK: recombinant human midkine mature protein (SEQ ID NO.1) expressed in E. coli and purified by ion-exchange chromatography (protein, listed as Homo sapiens)
chain: MKKKDKVKKGGPGSECAEWAWGPCTPSSKDCGVGFREGTCGAQTQRIRCRVPCNWKKEFGADCKYKFENWGACDGGTGTKVRQGTLKKARYNAQCQETIRVTKPCTPKTKAKAKAKKGKGKD
Regarding B1, in assay [1], the Cartilage thickness, Ear is 107 ± 3.4 µm; the Cartilage thickness, Femoral condyle is 263 ± 54.4 µm; the Cartilage thickness, Intervertbral disc (T2-3) is 659 ± 40.8 µm; the Cartilage thickness, Trachea was 246 ± 9.1 µm. For the same molecule, in assay [2] (auricular chondrocyte after one passage), the “effect on Col2a1 expression (semiquantitative PCR)” value was “inhibited the decreasing of the Col2a1”. Besides, in assay [2] (auricular chondrocytes, passage one, rhMK group, not detected without rhMK), the “chondrocytes stained collagen II positive” value was “about 50%”. Moreover, the histological scores entry in assay [3] (ACLT/rhMK groups (58.3 and 525 μg/kg intra-articular) versus ACLT/saline group, P<0.05 Kruskal-wallis Test) is recorded as “statistically lower than that of the ACLT/saline group”. The “regenerated cartilage layer thickness (histology)” value in assay [3] (ACLT/rhMK groups versus ACLT/saline group, 18 weeks after ACLT surgery) is “significantly thicker than that of ACLT/saline group”.

The record behind these values is patent US9283300B2, “Use of midkine protein and the protein-containing medical device” (GENERAL REGENERATIVES, LTD, priority 2009, dated 2016).
